Measurements taken from the supplement of paper PMC10126150.
± gives the standard deviation of the averaged measurements.

tested on: ATP; assay: switch fluorescence ratio, 500 uM ATP over buffer (Cy3 cluster intensity, sum of 5 cycles each) (fold (ratio)); higher = stronger signal-on switching upon ATP binding; sequences stand for … in TCGTCGGCAGCGTCAGATGTGTATAAGAGACAGTTTTTTTTTTTTTTTTTTTTTTTTT…TC; details: aptamer strand: ATP DNA aptamer (quencher-CACCTGGGGGAGTATTGCGGAGGAAGG + anchor), 100 nM annealed; ATP concentration: 500 uM
Outline: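 Clusters with intensities outside 100-1000 RFU were excluded. The remaining Cy3-labelled switching-strand clusters on a modified Illumina MiSeq flow-cell had been annealed to 100 nM quencher-labelled ATP aptamer and imaged in selection buffer, then after 15 min with 500 uM ATP at 22 °C, for five cycles separated by NaOH stripping and re-annealing. The fluorescence ratio, averaged per switch-domain sequence, is each cluster's summed target-cycle Cy3 intensity over its summed buffer-cycle Cy3 intensity.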
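Further: ATP exposure 15 min at 22 °C before imaging.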

In order of falling switch fluorescence ratio:
1. TGGGCGATAT  1.95 ± 1.1
2. GGTGACGCAC  1.62 ± 0.057
3. AAGCAATTAT  1.53 ± 0.11
4. TATGGCATAC  1.51 ± 0.02
5. GCAATGGGTG  1.35 ± 0.027
6. CACATTACAT  1.28 ± 0.1
7. CCATTCCCAT  1.26 ± 0.28
8. CGATTGGTAC  1.25 ± 0.023
9. CCGCTTTGTT  1.24 ± 0.072
10. TTTCCCTCGT  1.16 ± 0.17
11. CCCCACGGCC  1.16 ± 0.028
12. TCGAGCACTG  1.13 ± 0.065
13. CCTACACTGG  1.13 ± 0.048
14. ACGTATTTTT  1.12 ± 0.018
15. TTTCTTTCGT  1.12 ± 0.16
16. CGCGTTGTGC  1.11 ± 0.021
17. GCAGGAATGG  1.113 ± 0.0098
18. AGCGAGAGAC  1.102 ± 0.0025
19. CCAGGGAGCC  1.1 ± 0.17
20. TAGGAAAAAT  1.09 ± 0.19
21. GGTCTGGGGT  1.09 ± 0.21
22. TCAGCAAATT  1.09 ± 0.041
23. TTATCATCCG  1.08 ± 0.038
24. ACAGATACAG  1.07 ± 0.025
25. AGGGTGGAAT  1.068 ± 0.01
26. CTGCTTCGAA  1.06 ± 0.023
27. AAGGAGGGGC  1.06 ± 0.13
28. GCGGAAGAGC  1.06 ± 0.032
29. TTTTAAAAAC  1.05 ± 0.049
30. AGACGGAATT  1.049 ± 0.0063
31. TTTATAACCA  1.05 ± 0.024
32. TGTATTTTTT  1.05 ± 0.093
33. GAGTTTCAGT  1.04 ± 0.073
34. TATAGCATTA  1.04 ± 0.014
35. CCATACTTAT  1.042 ± 0.0059
36. TATTTAGACC  1.04 ± 0.012
37. ATGGGATTTA  1.04 ± 0.024
38. TTCCGGGGAT  1.04 ± 0.044
39. CCGGCTTGCT  1.03 ± 0.036
40. AAGTAGGGTA  1.03 ± 0.025
41. GCTTTTGCAC  1.028 ± 0.0078
42. ATGCGCTTTT  1.03 ± 0.089
43. AGCTGATGG  1.0343 ± 0.00071
44. TCAGCCCCAT  1.033 ± 0.0072
45. TTTTAGTAAC  1.02 ± 0.017
46. CAGATATTTC  1.02 ± 0.021
47. TTAAGCATTT  1.021 ± 0.0047
48. TATTCGAAAT  1.02 ± 0.028
49. ATAAGTGATA  1.02 ± 0.025
50. ATTTAATTAA  1.02 ± 0.056
51. ATAGGGATTC  1.02 ± 0.038
52. TGAGGACCCT  1.02 ± 0.025
53. TTGCTTATCG  1.021 ± 0.0047
54. GGCTTTGGTC  1.018 ± 0.0099
55. AAGGTATGTG  1.025 ± 0.0038
56. TTTGTAAATA  1.008 ± 0.0069
57. CGACTAGGGG  1.01 ± 0.024
58. GGTTGCGTCG  1.01 ± 0.014
59. GAACTTGGG  1.01 ± 0.045
60. AATCTTCTAT  1.01 ± 0.024
61. TATTTATTGT  1.01 ± 0.008
62. ATGGGTTGTT  1.01 ± 0.034
63. CGGTACGCTG  1.01 ± 0.017
64. GGCGGATGGA  1.01 ± 0.037
65. CCATTGTGCA  1.01 ± 0.013
66. AAAAAATGGA  1.01 ± 0.031
67. AGGTGTCGCG  1.01 ± 0.02
68. GTCATCGAGT  1.008 ± 0.0039
69. TTTTGATATT  1.01 ± 0.035
70. AGGGAACGGG  1.01 ± 0.055
71. TCATGGTGTC  1.01 ± 0.018
72. CGTCGGAGTG  1.01 ± 0.022
73. GGGGTTGGG  1.015 ± 0.0031
74. CGTGTCGCCT  1.01 ± 0.015
75. AGGGGGACCC  1 ± 0.058
76. AAAATTTTGT  1 ± 0.021
77. TTATGGTTTT  1 ± 0.024
78. AAAAAAGTTA  1 ± 0.064
79. GGGGGATGCG  1 ± 0.048
80. CGTAATGAAG  1.004 ± 0.0064
81. TCGGGTATAT  1 ± 0.044
82. GCGTCGGGGA  1 ± 0.047
83. TGTTATCAGC  1 ± 0.047
84. TTTTTTGATC  0.999 ± 0.034
85. ATGTTCCTTT  0.999 ± 0.023
86. GGTTTAGCTC  0.999 ± 0.038
87. ACTTTGTATT  0.999 ± 0.013
88. TAAGGGGGAG  0.999 ± 0.01
89. AATGGGAAGA  0.9987 ± 0.0043
90. CGTCGTAAAA  0.999 ± 0.036
91. GGTTAGTACT  0.999 ± 0.017
92. ATTTTACGAT  0.999 ± 0.049
93. TTAAAAAAGA  0.998 ± 0.013
94. GCGATGTCT  0.9976 ± 0.0065
95. ATTTTTTGAA  0.997 ± 0.019
96. GTCTTATGGC  0.997 ± 0.011
97. GTGGGGGTTA  0.996 ± 0.03
98. GTTTAAAGGT  0.996 ± 0.024
99. CAAGTAGAGT  0.9953 ± 0.0059
100. TCCTTGATAT  0.995 ± 0.04
101. ATAGTTCTGG  0.992 ± 0.018
102. TATGTTGTGA  0.9902 ± 0.0039
103. GTGACTTTCT  0.99 ± 0.017
104. AAAAGGGTTG  0.99 ± 0.033
105. CGGTATCTGA  0.9888 ± 0.006
106. GGAATTTTTT  0.9887 ± 0.0051
107. GAAATAGGTT  0.989 ± 0.012
108. CATTTGGGGT  0.989 ± 0.017
109. AAGGCAAGTG  0.989 ± 0.054
110. TTTGTTGCCA  0.988 ± 0.0019
111. ATCATCGGGG  0.988 ± 0.043
112. GTAAGGGGAT  0.988 ± 0.016
113. TGCTTAGGTT  0.988 ± 0.011
114. GGAATCGGCG  0.988 ± 0.017
115. CCTGTCTTCT  0.9869 ± 0.0061
116. TTTATCATGC  0.987 ± 0.019
117. ATGTTGTAAC  0.985 ± 0.01
118. CAGGGGGCCA  0.984 ± 0.033
119. GAATGTGATA  0.984 ± 0.018
120. GATGTGCACC  0.983 ± 0.027
121. ATAAGTGCGA  0.9826 ± 0.002
122. GAGAGGGGAG  0.983 ± 0.025
123. CGGTAGTATC  0.982 ± 0.049
124. TTGGATTAGT  0.982 ± 0.011
125. CCTATGATTG  0.981 ± 0.023
126. GATAAATGTA  0.9808 ± 0.0084
127. GTGTAAGGGT  0.981 ± 0.018
128. TATTTGTCCA  0.981 ± 0.047
129. ATGTAGAGGT  0.9803 ± 0.0074
130. GGAAGTTGGG  0.98 ± 0.023
131. AGGGATCGGT  0.979 ± 0.025
132. AGGGATCCTA  0.978 ± 0.012
133. TCGCGCGGTG  0.978 ± 0.021
134. CATAGGGGAC  0.978 ± 0.066
135. TCAGTAGGGG  0.978 ± 0.068
136. AACAGTTAGG  0.9762 ± 0.0069
137. TTTAGAGAGA  0.975 ± 0.015
138. AAAAATGTAT  0.975 ± 0.019
139. GTTTGGGATG  0.9738 ± 0.0065
140. GGTGTTGTG  0.974 ± 0.081
141. CTGAAGGTTG  0.9737 ± 0.0014
142. CGGAGACTTG  0.973 ± 0.068
143. GGGGGACGCT  0.972 ± 0.039
144. CAAATATGAG  0.972 ± 0.033
145. CGATGGTAAG  0.972 ± 0.011
146. AGAATTGAGA  0.971 ± 0.019
147. CAAGGCCTGT  0.971 ± 0.017
148. ATGACGGTAG  0.97 ± 0.062
149. TCGTGCGGGG  0.969 ± 0.016
150. TCATTTTCTT  0.9688 ± 0.0049
151. GTGTATGGGA  0.967 ± 0.033
152. CGGATTAGTG  0.964 ± 0.018
153. TGCGTTCGGC  0.963 ± 0.041
154. TAAGGGAAAC  0.963 ± 0.013
155. TTAATGTTGG  0.962 ± 0.046
156. ATGGTGTCGA  0.947 ± 0.029
157. TGATGATTTT  0.945 ± 0.017
